This note sets out measurements from paper PMC4462951.

The target of data set [1] is T1, Hot1 (Saccharomyces cerevisiae BY4741, UniProt Q03213 1-719).
T1 sequence: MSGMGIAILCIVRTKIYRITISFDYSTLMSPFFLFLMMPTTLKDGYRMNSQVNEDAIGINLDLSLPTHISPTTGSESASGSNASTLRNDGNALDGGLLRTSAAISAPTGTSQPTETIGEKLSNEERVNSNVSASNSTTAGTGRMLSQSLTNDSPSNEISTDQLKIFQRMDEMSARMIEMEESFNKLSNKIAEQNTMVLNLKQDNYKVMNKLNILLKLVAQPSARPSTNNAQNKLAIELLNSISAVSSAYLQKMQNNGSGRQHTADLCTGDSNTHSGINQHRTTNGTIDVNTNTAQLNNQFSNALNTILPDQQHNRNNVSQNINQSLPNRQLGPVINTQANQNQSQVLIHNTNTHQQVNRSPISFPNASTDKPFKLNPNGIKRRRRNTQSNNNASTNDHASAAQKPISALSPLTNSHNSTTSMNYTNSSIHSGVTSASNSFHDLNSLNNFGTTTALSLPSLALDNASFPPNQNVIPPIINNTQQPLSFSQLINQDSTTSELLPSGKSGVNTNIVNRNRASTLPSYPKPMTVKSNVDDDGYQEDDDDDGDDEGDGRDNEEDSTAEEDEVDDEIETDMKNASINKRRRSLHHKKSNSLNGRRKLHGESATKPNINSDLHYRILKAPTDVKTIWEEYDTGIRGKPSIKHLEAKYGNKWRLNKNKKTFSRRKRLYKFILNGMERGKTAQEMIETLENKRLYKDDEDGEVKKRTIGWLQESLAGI
The data set can be described thus: EMSA. (A gel shift assay detects complexes by their altered migration in electrophoresis.)

Data set [2] has as its target T1, Hot1. The data set can be described thus: competition.

B1: STL1 promoter HoRE, E6 probe (dsDNA)
DNA 1: CTATTCCACCGCATTTGGCCCATTTGGCTCACTTTGACTCAACTTGCGTCATTTTAACTGATATG
DNA 2: CATATCAGTTAAAATGACGCAAGTTGAGTCAAAGTGAGCCAAATGGGCCAAATGCGGTGGAATAG
Regarding B1, in data set [1], the binding result is “binds”.

B2: RM9 (E6 with mutated HoRE repeats) (dsDNA)
DNA 1: CTATTCCACCGCATCTGGTCCATCTGGTTCACTCTGATTCAACTTGCGTCATTTTAACTGATATG
DNA 2: CATATCAGTTAAAATGACGCAAGTTGAATCAGAGTGAACCAGATGGACCAGATGCGGTGGAATAG
Turning to B2, the binding result in data set [2] was “no binding”.
